Assays:
[1] = biological target: T1, chimeric TNFR1-PDGFR Receptor (Homo sapiens, UniProt P19438); assay: Ca2+-dependent aequorin luminescence in HEK293T Aequorin cells expressing chimeric TNFR1(fl)-PDGFR(cd) receptor, HTS setting; format: cell-based, human TNFR1 / mouse PDGFR; conditions: for Effect on TNF-dependent intracellular calcium increase (luminescence AUC): 1 μM inhibitor, 3 ng/ml TNF
T1 construct: yielding the expression construct pcDNA3.1 hygro TNFR1(fl)-PDGFR(cd) vector; mouse PDGFRb cytoplasmic tyrosine kinase domain (fusion partner); expressed in transfected cells; host or cells: HEK293T cells stably expressing apoaequorin
T1 sequence (P19438 with tags, fused parts or gaps): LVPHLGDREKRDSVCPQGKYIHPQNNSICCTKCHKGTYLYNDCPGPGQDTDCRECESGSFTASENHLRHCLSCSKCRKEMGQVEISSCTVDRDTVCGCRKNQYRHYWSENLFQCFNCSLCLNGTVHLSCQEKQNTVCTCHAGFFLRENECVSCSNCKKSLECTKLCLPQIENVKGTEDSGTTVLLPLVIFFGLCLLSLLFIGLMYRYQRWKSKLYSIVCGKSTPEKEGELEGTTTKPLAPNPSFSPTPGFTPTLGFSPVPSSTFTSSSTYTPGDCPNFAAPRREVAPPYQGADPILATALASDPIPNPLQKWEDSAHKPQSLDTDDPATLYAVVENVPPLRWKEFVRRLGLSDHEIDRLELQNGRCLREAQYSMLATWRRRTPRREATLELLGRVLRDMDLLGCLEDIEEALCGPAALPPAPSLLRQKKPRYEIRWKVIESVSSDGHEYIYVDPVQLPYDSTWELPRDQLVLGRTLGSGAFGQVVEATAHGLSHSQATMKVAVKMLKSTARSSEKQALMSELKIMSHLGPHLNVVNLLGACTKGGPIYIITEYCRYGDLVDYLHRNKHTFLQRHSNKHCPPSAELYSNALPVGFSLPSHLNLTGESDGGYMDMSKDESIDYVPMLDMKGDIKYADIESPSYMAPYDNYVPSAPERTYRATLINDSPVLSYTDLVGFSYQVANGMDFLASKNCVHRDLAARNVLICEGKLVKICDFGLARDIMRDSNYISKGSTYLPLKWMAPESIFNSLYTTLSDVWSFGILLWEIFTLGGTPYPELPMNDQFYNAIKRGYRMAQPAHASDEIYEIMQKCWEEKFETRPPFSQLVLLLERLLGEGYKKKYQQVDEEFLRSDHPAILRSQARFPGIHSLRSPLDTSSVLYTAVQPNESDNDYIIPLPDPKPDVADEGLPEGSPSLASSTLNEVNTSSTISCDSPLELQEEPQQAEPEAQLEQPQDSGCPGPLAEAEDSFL
Description: HEK293T stably expressing Apoaequorin were generated using standard cloning techniques. The HEK293T cells expressing Apoaequorin (“Aequorin cells”) were then further transfected as described in Examples 1-3 so as to express the chimeric receptors 1-3 as listed in Table 3.
In particular, the HEK293T Apoaequorin cells were transfected with pcDNA3.1 hygro TNFR1-fl-PDGFR-cd vector as prepared in Example 1 using Optifect™ Transfection Reagent (Invitrogen), according to the manufacturer's protocol.
HEK293T cells expressing Apoaequorin and the chimeric receptor (Example 4) were plated in 384-well plates at a concentration of 12500 cells per well in a final volume of 50 μl. The next day culture supernatants were removed and 25 μl labeling buffer (DMEM:F12 plus 0.1% BSA) containing 2.5 μM Coelenterazine h (Dalton Pharma services), was added. Cells were incubated at room temperature for 6 hrs. A FDSS7000 reader from Hamamatsu (Japan) was used to examine intracellular calcium levels. […] The instrument features include detection with a camera of fluorescence or luminescence and automatically converts fluorescence or luminescence signals into numeric data. This digital data is then used to determine the concentration of calcium inside the analyzed cells. The information is automatically analyzed in terms of a positive, negative or null effect of each test compound being examined. This system allowed differences between untreated and treated cells to be measured, for example by measuring the calcium flux in cells.
After a baseline reading of 10 seconds, cells were incubated for 3 minutes with different doses of inhibitors or buffer controls. […] The results were analyzed using the FDSS analysis software from Hamamatsu. […]
HEK293T Aequorin cells expressing fusion proteins as described in Example 4 were treated or not treated with 3 ng/ml of TNF and 300 ng/ml of an anti-TNFR1 antagonist monoclonal antibody (MAB225, R&D Systems) was added to half of the samples exposed to TNF. Following 10 minutes of exposure after TNF addition, the area under the curve was determined for each sample. […]

[2] = biological target: chimeric receptor TNFR1(fl)-PDGFR(cd): full length human TNFR1 fused to the cytoplasmic tyrosine kinase domain of mouse PDGFR (human TNFR1 / mouse PDGFR); assay: cell-based or functional assay
Target sequence (chain, as listed by the source mutant limits assumed): as the sequence (P19438 with tags, fused parts or gaps) above

Compound	Effect on TNF-dependent intracellular calcium increase (luminescence AUC) [1]	Effect on TNF-dependent intracellular calcium increase (luminescence AUC) ([1]; listed as PDGFR tyrosine kinase inhibitor)	Inhibitory efficacy (dose response), compared with full-length PDGFR cells ([1]; inhibitor 3 μM to 0.45 nM, cells exposed to TNF)	EC50, Ca2+-dependent aequorin luminescence, AUC over 10 minutes [2] [ng/mL]	EC50, Ca2+-dependent aequorin luminescence, Max-Min [2] [ng/mL]	EC80, Ca2+-dependent aequorin luminescence, AUC over 10 minutes [2] [ng/mL]	EC80, Ca2+-dependent aequorin luminescence, Max-Min [2] [ng/mL]
COc1cc2ncnc(N3CCN(C(=O)Nc4ccc(Oc5ccccc5)cc4)CC3)c2cc1OC [PDGFR Tyrosine Kinase Inhibitor III, 4-(6,7-Dimethoxy-4-quinazolinyl)-N-(4-phenoxyphenyl)-1-piperazinecarboxamide]	prevented the detection of intracellular calcium increase	signalling is blocked	equal inhibitory efficacy				
Tumor necrosis factor (TNF) (ligand)				1.27	1.06	2.9	3
